The target in the assay is Secreted form of the peptidase domain (PD) of ACE2 (human). Kind of assay: BLI. On the technique in general: BLI is a label-free optical method that tracks binding on a fibre tip over time.

Two substances from PMC9667838 can be followed below.

Usually Kd stands for the equilibrium constant for the complex coming apart. With “Receptor binding domain (RBD) of the spike glycoprotein of SARS-CoV-2 Omicron subvariant BA.2 (from UniProt P0DTC2 319-541) (domain or fragment)”, the dissociation constant (Kd) amounted to 4.15 nM.
To “Receptor binding domain (RBD) of the spike glycoprotein of SARS-CoV-2 Omicron subvariants BA.4/BA.5 (from UniProt P0DTC2 319-541) (domain or fragment)” belongs 4.55 nM.
